Assay results from article PMC6842044.

Biological target: Glial cell line-derived neurotrophic factor (GDNF), immobilised for SPR (UniProt P39905)
Test: SPR

B1: Activin receptor-like kinase 5 (ALK5), analyte in SPR (receptor)
chain: LQCFCHLCTKDNFTCVTDGLCFVSVTETTDKVIHNSMCIAEIDLIPRDRPFVCAPSSKTGSVTTTYCCNQDHCNKIELPTTVKSSPGLGPVELAAVIAGPVCFVCISLMLMVYICHNRTVIHHRVPNEEDPSLDRPFISEGTTLKDLIYDMTTSGSGSGLPLLVQRTIARTIVLQESIGKGRFGEVWRGKWRGEEVAVKIFSSREERSWFREAEIYQTVMLRHENILGFIAADNKDNGTWTQLWLVSDYHEHGSLFDYLNRYTVTVEGMIKLALSTASGLAHLHMEIVGTQGKPAIAHRDLKSKNILVKKNGTCCIADLGLAVRHDSATDTIDIAPNHRVGTKRYMAPEVLDDSINMKHFESFKRADIYAMGLVFWEIARRCSIGGIHEDYQLPYYDLVPSDPSVEEMRKVVCEQKLRPNIPNRWQSCEALRVMAKIMRECWYANGAARLTALRIKKTLSQLSQQEGIKM
A Kd of 85.5 nM was found for B1 in this work.
